From FireProtDB (doi:10.1093/protein/12.8.663)
Values joined by “and” are separate entries in the source; they are usually repeats but may differ in a detail not shown here. Equal values may be shown once.

B1: Lysozyme C, P61626 (parent)
chain: MKALIVLGLVLLSVTVQGKVFERCELARTLKRLGMDGYRGISLANWMCLAKWESGYNTRATNYNAGDRSTDYGIFQINSRYWCNDGKTPGAVNACHLSCSALLQDNIADAVACAKRVVRDPQGIRAWVAWRNRCQNRDVRQYVQGCGV

Variants of: B1
Details: Homo sapiens; pH 2.59; Thermal; DSC; glycine 0.05 M; reversible: yes; structure 1LZ1; whole UniProt chain shown

Row | Variant | Tm | unfolding enthalpy (calorimetric) | unfolding enthalpy (van 't Hoff)
1 | Q76G | 68.3 °C | 113 kcal/mol | 121 kcal/mol

Same assay, conditions: Homo sapiens; pH 2.7; 64.9 °C; Thermal; DSC; glycine 0.05 M; reversible: yes; structure 1LZ1; whole UniProt chain shown

Row | Variant | ddG of mutation (higher = less stable)
2 | Q76G | -1.86 kcal/mol
3 | R68G | -0.26 kcal/mol
4 | V92S | 0.38 kcal/mol
5 | A50L | 0.1 kcal/mol
6 | V118F | 1.65 kcal/mol

Same assay, conditions: Homo sapiens; pH 2.7; Thermal; DSC; glycine 0.05 M; reversible: yes; structure 1LZ1; whole UniProt chain shown

Row | Variant | change of melting temperature, mutant - wild type (higher = more stable) | heat capacity change of unfolding | unfolding enthalpy (calorimetric) | Tm
7 | Q76G | 5.7 °C | 1.34 kcal/mol/K | 109 kcal/mol | –
8 | R68G | 0.9 °C | 1.46 kcal/mol/K | 100 kcal/mol | 65.8 °C and 64.9 °C
9 | V92S | -1.2 °C | 1.22 kcal/mol/K | 108 kcal/mol | 63.7 °C and 64.9 °C
10 | A50L | -0.3 °C | 1.27 kcal/mol/K | 98.2 kcal/mol | 64.6 °C and 64.9 °C
11 | V118F | -6.5 °C | 0.93 kcal/mol/K | 87.2 kcal/mol | –
12 | N45L | 0.4 °C | – | – | 65.3 °C

Same assay, conditions: Homo sapiens; pH 2.78; Thermal; DSC; glycine 0.05 M; reversible: yes; structure 1LZ1; whole UniProt chain shown

Row | Variant | Tm | unfolding enthalpy (calorimetric) | unfolding enthalpy (van 't Hoff)
13 | Q76G | 72.5 °C | 119 kcal/mol | 127 kcal/mol
14 | R68G | 67.3 °C | 102 kcal/mol | 114 kcal/mol

Same assay, conditions: Homo sapiens; pH 3.15; Thermal; DSC; glycine 0.05 M; reversible: yes; structure 1LZ1; whole UniProt chain shown

Row | Variant | Tm | unfolding enthalpy (calorimetric) | unfolding enthalpy (van 't Hoff)
15 | Q76G | 78.7 °C | 127 kcal/mol | 135 kcal/mol

Same assay, conditions: Homo sapiens; pH 2.58; Thermal; DSC; glycine 0.05 M; reversible: yes; structure 1LZ1; whole UniProt chain shown

Row | Variant | Tm | unfolding enthalpy (calorimetric) | unfolding enthalpy (van 't Hoff)
16 | R68G | 63.7 °C | 99.9 kcal/mol | 111 kcal/mol

Same assay, conditions: Homo sapiens; pH 3.11; Thermal; DSC; glycine 0.05 M; reversible: yes; structure 1LZ1; whole UniProt chain shown

Row | Variant | Tm | unfolding enthalpy (calorimetric) | unfolding enthalpy (van 't Hoff)
17 | R68G | 73 °C | 113 kcal/mol | 123 kcal/mol

Same assay, conditions: Homo sapiens; pH 2.61; Thermal; DSC; glycine 0.05 M; reversible: yes; structure 1LZ1; whole UniProt chain shown

Row | Variant | Tm | unfolding enthalpy (calorimetric) | unfolding enthalpy (van 't Hoff)
18 | V92S | 62.1 °C | 105 kcal/mol | 110 kcal/mol
19 | A50L | 63.1 °C | 94.9 kcal/mol | 97.8 kcal/mol

Same assay, conditions: Homo sapiens; pH 2.83; Thermal; DSC; glycine 0.05 M; reversible: yes; structure 1LZ1; whole UniProt chain shown

Row | Variant | Tm | unfolding enthalpy (calorimetric) | unfolding enthalpy (van 't Hoff)
20 | V92S | 66 °C | 109 kcal/mol | 115 kcal/mol
21 | A50L | 66.9 °C | 102 kcal/mol | 104 kcal/mol
22 | V118F | 61 °C | 84.6 kcal/mol | 92 kcal/mol

Same assay, conditions: Homo sapiens; pH 3.28; Thermal; DSC; glycine 0.05 M; reversible: yes; structure 1LZ1; whole UniProt chain shown

Row | Variant | Tm | unfolding enthalpy (calorimetric) | unfolding enthalpy (van 't Hoff)
23 | V92S | 72.2 °C | 117 kcal/mol | 122 kcal/mol

Same assay, conditions: Homo sapiens; pH 3.23; Thermal; DSC; glycine 0.05 M; reversible: yes; structure 1LZ1; whole UniProt chain shown

Row | Variant | Tm | unfolding enthalpy (calorimetric) | unfolding enthalpy (van 't Hoff)
24 | A50L | 73.2 °C | 108 kcal/mol | 111 kcal/mol

Same assay, conditions: Homo sapiens; pH 2.62; Thermal; DSC; glycine 0.05 M; reversible: yes; structure 1LZ1; whole UniProt chain shown

Row | Variant | Tm | unfolding enthalpy (calorimetric) | unfolding enthalpy (van 't Hoff)
25 | V118F | 56.8 °C | 79.1 kcal/mol | 85.1 kcal/mol

Same assay, conditions: Homo sapiens; pH 3.26; Thermal; DSC; glycine 0.05 M; reversible: yes; structure 1LZ1; whole UniProt chain shown

Row | Variant | Tm | unfolding enthalpy (calorimetric) | unfolding enthalpy (van 't Hoff)
26 | V118F | 67.6 °C | 89.4 kcal/mol | 95.4 kcal/mol
